Laboratory results: patent publication US20130089536

Target: Aβ1-40 peptide (UniProt P05067)

## hGCP II (wild type human glutamate carboxypeptidase II expressed from cDNA in cells)
  Aβ1-40 cleavage in primary rat astrocytes (Aβ1-40 in growth medium by ELISA): 2-PMPA did not block A1-40 cleavage of lentiviral GCP II
